# Assay results as given in US20220372155A1 (LYVGEN BIOPHARMA, published 2022).
# B1: Ly413 (bispecific antibody, human IgG1, kappa)
# heavy: EVQLVESGGGLVQPGGSLRLSCAASGFNIKDTYMHWVRQAPGKGLEWVARIDPANGNSKYADSVKGRFTISADTSKNTAYLQMNSLRAEDTAVYYCAPFGYYVSDYAMAYWGQGTLVTVSSASTKGPSVFPLAPSSKSTSGGTAALGCLVKDYFPEPVTVSWNSGALTSGVHTFPAVLQSSGLYSLSSVVTVPSSSLGTQTYICNVNHKPSNTKVDKKVEPKSCDKTHTCPPCPAPELLGPSVFLFPPKPKDTLMISRTPEVTCVVVDVSHEDPEVKFNWYVDGVEVHNAKTKPREEQYNSTYRVVSVLTVLHQDWLNGKEYKCKVSNKALPAPIEKTISKAKGQPREPQVYTLPPSREEMTKNQVSLTCLVKGFYPSDIAVEWESNGQPENNYKTTPPVLDSDGSFFLYSKLTVDKSRWQQGNVFSCSVMHEALHNHYTQKSLSLSPGGGGGSGGGGSGGGGSGGGGSDIQMTQSPSSLSASVGDRVTITCLASEDISNDLAWYQQKPGKAPKLLIYFVDRLLDGVPSRFSGSGSGTDFTLTISSLQPEDFATYYCQQSYKYPPTFGQGTKLEIKGGGGSGGGGSGGGGSGGGGSEVQLVESGGGLVQPGGSLRLSCAASGFTFTNYGLHWVRQAPGKGLEWVSSISPSGGVTYYRDSVKGRFTISRDNSKNTLYLQMNSLRAEDTAVYYCAKPFLGWGGANWIAHWGQGTLVTVSS
# light: DIQLTQSPSSLSASVGDRVTITCRAGESVDIFGVGFLHWYQQKPGKAPKLLIYRASNLESGVPSRFSGSGSRTDFTLTISSLQPEDFATYYCQQTNEDPYTFGQGTKVEIKRTVAAPSVFIFPPSDEQLKSGTASVVCLLNNFYPREAKVQWKVDNALQSGNSQESVTEQDSKDSTYSLSSTLTLSKADYEKHKVYACEVTHQGLSSPVTKSFNRGEC
# notes: Ly312 HC (IgG1 mutated Fc)-TM559 scFv VL-VH + Ly312 LC
# B2: Ly414 (bispecific antibody, human IgG1, kappa)
# heavy: EVQLVESGGGLVQPGGSLRLSCAASGFNIKDTYMHWVRQAPGKGLEWVARIDPANGNSKYADSVKGRFTISADTSKNTAYLQMNSLRAEDTAVYYCAPFGYYVSDYAMAYWGQGTLVTVSSASTKGPSVFPLAPSSKSTSGGTAALGCLVKDYFPEPVTVSWNSGALTSGVHTFPAVLQSSGLYSLSSVVTVPSSSLGTQTYICNVNHKPSNTKVDKKVEPKSCDKTHTCPPCPAPELLGPSVFLFPPKPKDTLMISRTPEVTCVVVDVSHEDPEVKFNWYVDGVEVHNAKTKPREEQYNSTYRVVSVLTVLHQDWLNGKEYKCKVSNKALPAPIEKTISKAKGQPREPQVYTLPPSREEMTKNQVSLTCLVKGFYPSDIAVEWESNGQPENNYKTTPPVLDSDGSFFLYSKLTVDKSRWQQGNVFSCSVMHEALHNHYTQKSLSLSPGGGGGSGGGGSGGGGSGGGGSEVQLVESGGGLVQPGGSLRLSCAASGFTFTNYGLHWVRQAPGKGLEWVSSISPSGGVTYYRDSVKGRFTISRDNSKNTLYLQMNSLRAEDTAVYYCAKPFLGWGGANWIAHWGQGTLVTVSSGGGGSGGGGSGGGGSGGGGSDIQMTQSPSSLSASVGDRVTITCLASEDISNDLAWYQQKPGKAPKLLIYFVDRLLDGVPSRFSGSGSGTDFTLTISSLQPEDFATYYCQQSYKYPPTFGQGTKLEIK
# light: B1 light
# notes: Ly312 HC (IgG1 mutated Fc)-TM559 scFv VH-VL + Ly312 LC
# B3: Ly415 (bispecific antibody, human IgG1, kappa)
# heavy: EVQLVESGGGLVQPGGSLRLSCAASGFNIKDTYMHWVRQAPGKGLEWVARIDPANGNSKYADSVKGRFTISADTSKNTAYLQMNSLRAEDTAVYYCAPFGYYVSDYAMAYWGQGTLVTVSSASTKGPSVFPLAPSSKSTSGGTAALGCLVKDYFPEPVTVSWNSGALTSGVHTFPAVLQSSGLYSLSSVVTVPSSSLGTQTYICNVNHKPSNTKVDKKVEPKSCDKTHTCPPCPAPELLGPSVFLFPPKPKDTLMISRTPEVTCVVVDVSHEDPEVKFNWYVDGVEVHNAKTKPREEQYNSTYRVVSVLTVLHQDWLNGKEYKCKVSNKALPAPIEKTISKAKGQPREPQVYTLPPSREEMTKNQVSLTCLVKGFYPSDIAVEWESNGQPENNYKTTPPVLDSDGSFFLYSKLTVDKSRWQQGNVFSCSVMHEALHNHYTQKSLSLSPGK
# light: DIQLTQSPSSLSASVGDRVTITCRAGESVDIFGVGFLHWYQQKPGKAPKLLIYRASNLESGVPSRFSGSGSRTDFTLTISSLQPEDFATYYCQQTNEDPYTFGQGTKVEIKRTVAAPSVFIFPPSDEQLKSGTASVVCLLNNFYPREAKVQWKVDNALQSGNSQESVTEQDSKDSTYSLSSTLTLSKADYEKHKVYACEVTHQGLSSPVTKSFNRGECGGGGSGGGGSGGGGSGGGGSDIQMTQSPSSLSASVGDRVTITCLASEDISNDLAWYQQKPGKAPKLLIYFVDRLLDGVPSRFSGSGSGTDFTLTISSLQPEDFATYYCQQSYKYPPTFGQGTKLEIKGGGGSGGGGSGGGGSGGGGSEVQLVESGGGLVQPGGSLRLSCAASGFTFTNYGLHWVRQAPGKGLEWVSSISPSGGVTYYRDSVKGRFTISRDNSKNTLYLQMNSLRAEDTAVYYCAKPFLGWGGANWIAHWGQGTLVTVSS
# notes: Ly312 HC (IgG1 mutated Fc) + Ly312 LC-TM559 scFv VL-VH
# B4: Ly416 (bispecific antibody, human IgG1, kappa)
# heavy: B3 heavy
# light: DIQLTQSPSSLSASVGDRVTITCRAGESVDIFGVGFLHWYQQKPGKAPKLLIYRASNLESGVPSRFSGSGSRTDFTLTISSLQPEDFATYYCQQTNEDPYTFGQGTKVEIKRTVAAPSVFIFPPSDEQLKSGTASVVCLLNNFYPREAKVQWKVDNALQSGNSQESVTEQDSKDSTYSLSSTLTLSKADYEKHKVYACEVTHQGLSSPVTKSFNRGECGGGGSGGGGSGGGGSGGGGSEVQLVESGGGLVQPGGSLRLSCAASGFTFTNYGLHWVRQAPGKGLEWVSSISPSGGVTYYRDSVKGRFTISRDNSKNTLYLQMNSLRAEDTAVYYCAKPFLGWGGANWIAHWGQGTLVTVSSGGGGSGGGGSGGGGSGGGGSDIQMTQSPSSLSASVGDRVTITCLASEDISNDLAWYQQKPGKAPKLLIYFVDRLLDGVPSRFSGSGSGTDFTLTISSLQPEDFATYYCQQSYKYPPTFGQGTKLEIK
# notes: Ly312 HC (IgG1 mutated Fc) + Ly312 LC-TM559 scFv VH-VL
# B5: Ly417 (bispecific antibody, human IgG1, kappa)
# heavy: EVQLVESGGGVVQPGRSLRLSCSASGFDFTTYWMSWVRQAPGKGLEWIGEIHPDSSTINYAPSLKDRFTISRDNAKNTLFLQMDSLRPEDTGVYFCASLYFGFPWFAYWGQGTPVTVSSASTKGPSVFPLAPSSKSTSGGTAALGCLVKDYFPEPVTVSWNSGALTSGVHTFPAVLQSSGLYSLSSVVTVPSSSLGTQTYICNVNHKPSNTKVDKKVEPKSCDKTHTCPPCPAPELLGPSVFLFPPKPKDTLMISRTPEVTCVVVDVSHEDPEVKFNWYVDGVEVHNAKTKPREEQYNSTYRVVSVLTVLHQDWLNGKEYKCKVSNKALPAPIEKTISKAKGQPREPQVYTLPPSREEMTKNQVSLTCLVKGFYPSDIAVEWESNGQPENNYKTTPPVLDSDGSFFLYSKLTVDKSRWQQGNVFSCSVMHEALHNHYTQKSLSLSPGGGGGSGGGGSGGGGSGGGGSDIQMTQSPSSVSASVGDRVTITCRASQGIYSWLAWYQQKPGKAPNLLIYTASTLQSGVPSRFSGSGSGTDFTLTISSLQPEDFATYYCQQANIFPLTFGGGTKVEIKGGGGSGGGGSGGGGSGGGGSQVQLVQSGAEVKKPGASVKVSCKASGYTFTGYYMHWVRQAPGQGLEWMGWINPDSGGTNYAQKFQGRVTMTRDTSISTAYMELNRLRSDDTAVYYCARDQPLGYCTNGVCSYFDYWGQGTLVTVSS
# light: DIQLTQSPSSLSASVGDRVTITCKASQDVGTSVAWYQQKPGKAPKLLIYWTSTRHTGVPSRFSGSGSGTDFTFTISSLQPEDIATYYCQQYSLYRSFGQGTKVEIKRTVAAPSVFIFPPSDEQLKSGTASVVCLLNNFYPREAKVQWKVDNALQSGNSQESVTEQDSKDSTYSLSSTLTLSKADYEKHKVYACEVTHQGLSSPVTKSFNRGEC
# notes: Ly311 HC (IgG1 mutated Fc)-Ly253 scFv VL-VH + Ly311 LC
# B6: Ly418 (bispecific antibody, human IgG1, kappa)
# heavy: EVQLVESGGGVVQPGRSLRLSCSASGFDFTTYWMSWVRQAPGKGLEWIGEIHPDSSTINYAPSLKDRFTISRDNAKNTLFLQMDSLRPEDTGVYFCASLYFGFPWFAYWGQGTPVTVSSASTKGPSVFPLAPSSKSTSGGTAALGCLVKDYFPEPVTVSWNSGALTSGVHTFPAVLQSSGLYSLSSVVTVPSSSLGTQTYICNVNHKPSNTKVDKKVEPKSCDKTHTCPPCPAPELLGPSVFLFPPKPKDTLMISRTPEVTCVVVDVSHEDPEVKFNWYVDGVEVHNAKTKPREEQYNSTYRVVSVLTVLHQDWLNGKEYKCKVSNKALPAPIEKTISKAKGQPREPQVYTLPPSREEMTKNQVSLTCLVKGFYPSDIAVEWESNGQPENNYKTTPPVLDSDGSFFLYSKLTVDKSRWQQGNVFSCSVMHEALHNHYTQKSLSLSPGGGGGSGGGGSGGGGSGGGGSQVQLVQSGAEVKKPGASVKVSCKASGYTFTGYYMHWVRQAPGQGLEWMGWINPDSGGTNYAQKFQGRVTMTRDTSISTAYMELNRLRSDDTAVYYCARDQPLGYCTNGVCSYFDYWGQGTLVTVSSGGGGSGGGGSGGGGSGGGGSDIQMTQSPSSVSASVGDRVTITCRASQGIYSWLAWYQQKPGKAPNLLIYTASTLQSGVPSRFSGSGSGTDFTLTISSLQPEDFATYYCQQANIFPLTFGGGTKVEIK
# light: B5 light
# notes: Ly311 HC (IgG1 mutated Fc)-Ly253 scFv VH-VL + Ly311 LC
# B7: Ly419 (bispecific antibody, human IgG1, kappa)
# heavy: EVQLVESGGGVVQPGRSLRLSCSASGFDFTTYWMSWVRQAPGKGLEWIGEIHPDSSTINYAPSLKDRFTISRDNAKNTLFLQMDSLRPEDTGVYFCASLYFGFPWFAYWGQGTPVTVSSASTKGPSVFPLAPSSKSTSGGTAALGCLVKDYFPEPVTVSWNSGALTSGVHTFPAVLQSSGLYSLSSVVTVPSSSLGTQTYICNVNHKPSNTKVDKKVEPKSCDKTHTCPPCPAPELLGPSVFLFPPKPKDTLMISRTPEVTCVVVDVSHEDPEVKFNWYVDGVEVHNAKTKPREEQYNSTYRVVSVLTVLHQDWLNGKEYKCKVSNKALPAPIEKTISKAKGQPREPQVYTLPPSREEMTKNQVSLTCLVKGFYPSDIAVEWESNGQPENNYKTTPPVLDSDGSFFLYSKLTVDKSRWQQGNVFSCSVMHEALHNHYTQKSLSLSPGK
# light: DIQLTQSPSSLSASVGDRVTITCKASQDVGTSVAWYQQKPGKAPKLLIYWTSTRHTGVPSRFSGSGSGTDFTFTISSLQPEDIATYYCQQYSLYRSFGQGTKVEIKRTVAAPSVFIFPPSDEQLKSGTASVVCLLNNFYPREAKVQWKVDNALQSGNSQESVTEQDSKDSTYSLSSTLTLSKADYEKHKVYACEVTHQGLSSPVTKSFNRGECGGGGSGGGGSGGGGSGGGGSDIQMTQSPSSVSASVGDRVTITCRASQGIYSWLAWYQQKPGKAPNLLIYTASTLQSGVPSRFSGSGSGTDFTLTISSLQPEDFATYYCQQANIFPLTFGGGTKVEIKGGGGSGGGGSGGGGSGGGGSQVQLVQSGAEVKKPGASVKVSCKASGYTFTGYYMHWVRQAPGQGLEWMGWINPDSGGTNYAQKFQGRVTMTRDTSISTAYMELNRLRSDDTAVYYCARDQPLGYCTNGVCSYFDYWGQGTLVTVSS
# notes: Ly311 HC (IgG1 mutated Fc) + Ly311 LC-Ly253 scFv VL-VH
# B8: Ly420 (bispecific antibody, human IgG1, kappa)
# heavy: B7 heavy
# light: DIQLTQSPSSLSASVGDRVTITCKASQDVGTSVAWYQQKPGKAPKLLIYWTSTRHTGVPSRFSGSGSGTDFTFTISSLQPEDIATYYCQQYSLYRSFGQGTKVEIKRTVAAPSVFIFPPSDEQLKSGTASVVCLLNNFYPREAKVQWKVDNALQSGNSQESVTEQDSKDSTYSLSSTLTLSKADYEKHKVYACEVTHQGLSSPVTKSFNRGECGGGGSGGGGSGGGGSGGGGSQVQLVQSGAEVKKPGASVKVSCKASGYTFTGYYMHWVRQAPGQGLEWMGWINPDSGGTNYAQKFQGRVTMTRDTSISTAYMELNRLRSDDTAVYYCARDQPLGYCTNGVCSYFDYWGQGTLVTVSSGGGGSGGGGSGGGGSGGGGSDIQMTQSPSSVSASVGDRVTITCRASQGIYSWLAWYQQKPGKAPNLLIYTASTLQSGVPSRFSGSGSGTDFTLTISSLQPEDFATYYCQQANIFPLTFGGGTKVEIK
# notes: Ly311 HC (IgG1 mutated Fc) + Ly311 LC-Ly253 scFv VH-VL
# B9: Ly421 (bispecific antibody, human IgG1, kappa)
# heavy: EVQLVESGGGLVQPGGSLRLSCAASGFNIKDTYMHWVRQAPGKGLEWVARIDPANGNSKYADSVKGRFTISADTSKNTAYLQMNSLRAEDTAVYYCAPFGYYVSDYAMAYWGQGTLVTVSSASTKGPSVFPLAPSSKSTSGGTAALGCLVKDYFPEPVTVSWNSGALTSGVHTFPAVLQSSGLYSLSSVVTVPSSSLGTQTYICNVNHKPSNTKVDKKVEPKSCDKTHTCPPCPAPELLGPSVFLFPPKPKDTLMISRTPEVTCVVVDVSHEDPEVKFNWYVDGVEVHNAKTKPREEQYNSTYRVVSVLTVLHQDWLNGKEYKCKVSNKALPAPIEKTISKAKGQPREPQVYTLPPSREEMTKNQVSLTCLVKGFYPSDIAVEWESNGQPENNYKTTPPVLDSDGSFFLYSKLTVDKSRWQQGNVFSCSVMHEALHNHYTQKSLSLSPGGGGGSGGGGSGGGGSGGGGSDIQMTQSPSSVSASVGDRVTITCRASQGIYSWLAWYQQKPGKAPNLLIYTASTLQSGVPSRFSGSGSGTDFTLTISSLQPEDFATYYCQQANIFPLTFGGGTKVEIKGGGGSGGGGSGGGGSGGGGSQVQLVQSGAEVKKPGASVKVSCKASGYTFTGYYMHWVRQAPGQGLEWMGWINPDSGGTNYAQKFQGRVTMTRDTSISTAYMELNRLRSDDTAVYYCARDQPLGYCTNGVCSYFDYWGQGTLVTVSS
# light: B1 light
# notes: Ly312 HC (IgG1 mutated Fc)-Ly253 scFv VL-VH + Ly312 LC
# B10: Ly422 (bispecific antibody, human IgG1, kappa)
# heavy: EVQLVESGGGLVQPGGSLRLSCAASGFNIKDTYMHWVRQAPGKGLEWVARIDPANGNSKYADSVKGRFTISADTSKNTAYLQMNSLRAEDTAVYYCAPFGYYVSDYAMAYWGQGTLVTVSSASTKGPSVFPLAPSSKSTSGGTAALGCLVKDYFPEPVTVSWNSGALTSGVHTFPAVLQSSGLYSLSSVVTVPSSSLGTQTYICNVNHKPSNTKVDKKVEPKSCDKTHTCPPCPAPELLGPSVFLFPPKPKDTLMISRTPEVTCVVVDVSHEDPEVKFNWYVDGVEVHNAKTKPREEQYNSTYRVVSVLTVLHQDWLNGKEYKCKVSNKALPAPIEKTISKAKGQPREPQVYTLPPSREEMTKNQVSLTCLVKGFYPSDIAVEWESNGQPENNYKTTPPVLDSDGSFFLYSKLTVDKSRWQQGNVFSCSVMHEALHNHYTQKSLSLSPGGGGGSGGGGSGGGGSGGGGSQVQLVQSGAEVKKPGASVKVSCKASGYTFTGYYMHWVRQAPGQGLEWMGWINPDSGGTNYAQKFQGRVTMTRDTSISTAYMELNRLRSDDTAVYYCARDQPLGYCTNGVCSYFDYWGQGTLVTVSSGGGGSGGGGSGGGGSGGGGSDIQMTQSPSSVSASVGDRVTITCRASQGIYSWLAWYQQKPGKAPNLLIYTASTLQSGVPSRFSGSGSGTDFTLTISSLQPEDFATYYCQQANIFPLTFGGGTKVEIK
# light: B1 light
# notes: Ly312 HC (IgG1 mutated Fc)-Ly253 scFv VH-VL + Ly312 LC
# B11: Ly423 (bispecific antibody, human IgG1, kappa)
# heavy: B3 heavy
# light: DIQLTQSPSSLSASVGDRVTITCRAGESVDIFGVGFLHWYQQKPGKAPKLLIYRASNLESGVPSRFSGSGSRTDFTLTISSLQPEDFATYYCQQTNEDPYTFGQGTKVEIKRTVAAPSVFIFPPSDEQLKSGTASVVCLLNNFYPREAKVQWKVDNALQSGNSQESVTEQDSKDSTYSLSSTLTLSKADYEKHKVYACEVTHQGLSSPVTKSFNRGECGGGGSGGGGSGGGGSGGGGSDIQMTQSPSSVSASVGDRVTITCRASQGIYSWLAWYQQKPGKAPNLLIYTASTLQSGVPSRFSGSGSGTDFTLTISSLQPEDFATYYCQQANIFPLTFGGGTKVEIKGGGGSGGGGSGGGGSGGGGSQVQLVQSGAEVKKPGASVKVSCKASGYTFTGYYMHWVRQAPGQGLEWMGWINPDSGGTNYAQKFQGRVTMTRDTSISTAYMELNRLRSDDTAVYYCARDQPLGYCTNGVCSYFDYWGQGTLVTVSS
# notes: Ly312 HC (IgG1 mutated Fc) + Ly312 LC-Ly253 scFv VL-VH
# B12: Ly424 (bispecific antibody, human IgG1, kappa)
# heavy: B3 heavy
# light: not shown
# notes: Ly312 HC (IgG1 mutated Fc) + Ly312 LC-Ly253 scFv VH-VL
# B13: Ly462 (bispecific antibody, human IgG1, kappa)
# heavy: QVQLKESGPGLVAPSQSLSITCTVSGFSLTDYGVRWIRQPPGKGLEWLGVIWGGGSTYYNSALKSRLSISKDNSKSQVFLKMNSLQTDDTAMYYCAKEKRRGYYYAMDYWGQGTSVTVSSASTKGPSVFPLAPSSKSTSGGTAALGCLVKDYFPEPVTVSWNSGALTSGVHTFPAVLQSSGLYSLSSVVTVPSSSLGTQTYICNVNHKPSNTKVDKKVEPKSCDKTHTCPPCPAPELLGPSVFLFPPKPKDTLMISRTPEVTCVVVDVSHEDPEVKFNWYVDGVEVHNAKTKPREEQYNSTYRVVSVLTVLHQDWLNGKEYKCKVSNKALPAPIEKTISKAKGQPREPQVYTLPPSREEMTKNQVSLTCLVKGFYPSDIAVEWESNGQPENNYKTTPPVLDSDGSFFLYSKLTVDKSRWQQGNVFSCSVMHEALHNHYTQKSLSLSPGGGGGSGGGGSGGGGSGGGGSDIQMTQSPSSLSASVGDRVTITCKASQNIYIYLNWYQQKPGKAPKLLIYNTNNLQTGVPSRFSGSGSGTDFTLTISSLQPEDFATYYCLQHSSRRTFGGGTKVEIKGGGGSGGGGSGGGGSGGGGSQVQLVESGGGLVQPGGSLKLSCATSGFNFNDYFMNWVRQASGKGLEWVGQIRNKNYNYATYYTESLEGRVTISRDDSKNTAYLQMNSLKTEDTAVYYCTSYYYDGFADYFDYWGQGTTVTVSS
# light: ENVLTQSPAIMSASPGEKVTMTCRASSSVSSSYLHWYQQKSGASPKLWIYSTSNLASGVPARFSGSGSGTSYSLTISSVEAEDAATYYCQQYSGYPLTFGGGTKLEIKRTVAAPSVFIFPPSDEQLKSGTASVVCLLNNFYPREAKVQWKVDNALQSGNSQESVTEQDSKDSTYSLSSTLTLSKADYEKHKVYACEVTHQGLSSPVTKSFNRGEC
# notes: Ly368 HC-TM740 scFv VL-VH + Ly368 LC
# Molecular target: T1, human CD40 expressed on CHO cells (human, UniProt P25942 21-277)
# T1 construct: whole, on cells; also used for the reporter cells over-expressing human CD40; also called cellular CD40; CHO-CD40 cells
# Experiment: FACS, CHO cells
# T1 sequence (P25942 21-277): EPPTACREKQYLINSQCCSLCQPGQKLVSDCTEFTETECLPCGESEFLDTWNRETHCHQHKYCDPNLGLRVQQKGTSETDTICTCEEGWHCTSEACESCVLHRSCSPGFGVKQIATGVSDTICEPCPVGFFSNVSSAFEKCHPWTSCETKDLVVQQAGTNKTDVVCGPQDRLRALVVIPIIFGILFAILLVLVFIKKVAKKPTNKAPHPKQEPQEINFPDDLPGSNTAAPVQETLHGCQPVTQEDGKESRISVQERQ
row,Binder,binding result
1,B1,binds
2,B2,binds
3,B3,binds
4,B4,binds
5,B5,binds
6,B6,binds
7,B7,binds
8,B8,binds
9,B9,binds
10,B10,binds
11,B11,binds
12,B12,binds
13,B13,binds
